Internalization, HSA-binding and tissue uptake data for four compounds are collected here from article PMC7198388, “Radiohybrid Ligands: A Novel Tracer Concept Exemplified by ^18F- or ^68Ga-Labeled rhPSMA Inhibitors” (Journal of Nuclear Medicine, 2020).

In one data set the test system is LNCaP cells. The data set can be described thus: Internalization into LNCaP cells, normalized to (125I-I-BA)KuE. In kind it is cell-based, human. Particulars: LNCaP cells 1.25 x 10^5/well, 1 h, 37°C, ligand 0.5 nM/well; % of specific internalization of (125I-I-BA)KuE; 68Ga-19F or 18F free-chelator form; mean ± SD, n = 3. The procedure:
Internalization studies were carried out according to a previously published procedure (1). Briefly, LNCaP cells were harvested 24 ± 2 hours before the experiment and seeded in poly -L-lysine coated 24-well plates […]
After removal of the culture medium, the cells were washed once with 500 µL DMEM -F12 (5% BSA) and left to equilibrate for at least 15 min at 37 °C in 200 µL DMEM-F12 (5% BSA). Each well was treated with either 25 µL of either DMEM-F12 (5% BSA, control) or 25 µL of a 100 µM PMPA (2-(Phosphonomethyl)-pentandioic acid, Tocris Bioscience, Bristol, UK) solution in PBS, for blockade. Next, 25 µL of the radioactive-labelled PSMA inhibitor (5.0 nM in PBS) was added and the cells were incubat ed at 37 °C for 60 min. The experiment was terminated by placing the 24 -well plate on ice for 3 min and consecutive removal of the medium. Each well was carefully washed with 250 µL of ice-cold HBSS. Both fractions from the first steps, representing the amount of free radioligand, were combined. Removal of surface bound activity was accomplished by incubation of the cells with 250 µL of ice-cold PMPA (10 µM in PBS) solution for 5 min […]
and rinsed again with another 250 µL of ice-cold PBS. The internalized activity was determined by incubation of the cells in 250 µL 1 M aqueous NaOH for at least 10 min. The obtained fractions were combined with those of the subsequent wash step with 250 µL 1 M aqueous NaOH. Each experiment (control and blockade) was performed in triplicate. Free, surface bound and internalized activity was quantified in a γ-counter. All internalization studies were accompanied by external reference studies, using […]
Data were corrected for non-specific

A further data set concerns the target T1, human serum albumin (Homo sapiens, UniProt P02768).
T1 construct: purchased Daicel H13H-2433
Description: HSA binding by HPLC on Chiralpak HSA column. Particulars: affinity HPLC, 50 mM NH4OAc pH 6.9/isopropanol gradient, r.t., 0.5 mg/mL, calibrated with nine reference substances, natGa-19F form. It is filed as in vitro ADME. The procedure:
with water (10 mL). The purified product was eluted with 50% aqueous ethanol (2 mL), phosphate buffered saline (PBS, 1 mL) and again water (1 mL). After removing ethanol in vacuo, purity of the radiolabelled compounds was determined by radio-HPLC and radio-TLC (ITLC-SG chromatography paper, mobile phase: 0.1 M trisodium citrate and Silica gel 60 RP-18 F254s, mobile phase: 3:2 mixture (v/v) of MeCN in H2O supplemented with 10% of 2 M NaOAc solution and 1% of TFA).
6. Human Serum Albumin (HSA) Binding
HSA binding of the PSMA-addressing ligands was determined according to a previously published procedure via HPLC (7). A Chiralpak HSA column (50 x 3 mm, 5 μm, H13H-2433, Daicel, Tokyo, Japan) […]
literature, in the range of 13 to 99% (7,8). All substances, including the examined PSMA ligands, were […]
final concentration of 0.5 mg/mL.
(Northampton, United States).
Affinity determinations (IC50)
The PSMA affinity (IC50) determinations and synthesis of the radioiodinated reference ligand (((S)-1- […]
described previously (1). Briefly, the respective ligand was diluted (serial dilution 10-4 to 10-10) in Hank’s balanced salt solution (HBSS, Biochrom). In the case of metal-complexed ligands, the crude reaction mixture containing the purified metal-complexed inhibitor and remaining metal nitrate, was diluted THE JOURNAL OF NUCLEAR MEDICINE • Vol. 61 • No. 5 • May 2020 Wurzer et al.

Data set [1] is described as follows: Biodistribution in LNCaP tumor-bearing CB-17 SCID mice. Particulars: male, mouse, in vivo, iv, 0.2 nmol, total radioactivity, 1 h p.i., i.v. tail vein, mean ± SD, n = 3 (n = 4 for rhPSMA-10). The source says: Mice were used for experiments when tumors had grown to a diameter of 5–10 mm (3–6 wk after inoculation).
Selected organs were removed, weighed, and measured in a γ-counter.

The mark [2] stands for this setting: read-out: Biodistribution, Adrenals.
[3] abbreviates: read-out: Biodistribution, Blood.
[4] abbreviates: read-out: Biodistribution, Bone.
The mark [5] stands for this setting: read-out: Biodistribution, Heart.
The mark [6] stands for this setting: read-out: Biodistribution, Intestine.
Where [7] appears, read: read-out: Biodistribution, Kidneys.
The mark [8] stands for this setting: read-out: Biodistribution, Liver.
Where [9] appears, read: read-out: Biodistribution, Lung.
Setting [10] is: read-out: Biodistribution, Muscle.
[11] abbreviates: read-out: Biodistribution, Pancreas.
The mark [12] stands for this setting: read-out: Biodistribution, Spleen.
Setting [13] is: read-out: Biodistribution, Stomach.
The mark [14] stands for this setting: LNCaP tumor, read-out: Biodistribution, Tumor.

Read-outs that look alike come from different tables or passages of the source.

T1 sequence (P02768 25-609): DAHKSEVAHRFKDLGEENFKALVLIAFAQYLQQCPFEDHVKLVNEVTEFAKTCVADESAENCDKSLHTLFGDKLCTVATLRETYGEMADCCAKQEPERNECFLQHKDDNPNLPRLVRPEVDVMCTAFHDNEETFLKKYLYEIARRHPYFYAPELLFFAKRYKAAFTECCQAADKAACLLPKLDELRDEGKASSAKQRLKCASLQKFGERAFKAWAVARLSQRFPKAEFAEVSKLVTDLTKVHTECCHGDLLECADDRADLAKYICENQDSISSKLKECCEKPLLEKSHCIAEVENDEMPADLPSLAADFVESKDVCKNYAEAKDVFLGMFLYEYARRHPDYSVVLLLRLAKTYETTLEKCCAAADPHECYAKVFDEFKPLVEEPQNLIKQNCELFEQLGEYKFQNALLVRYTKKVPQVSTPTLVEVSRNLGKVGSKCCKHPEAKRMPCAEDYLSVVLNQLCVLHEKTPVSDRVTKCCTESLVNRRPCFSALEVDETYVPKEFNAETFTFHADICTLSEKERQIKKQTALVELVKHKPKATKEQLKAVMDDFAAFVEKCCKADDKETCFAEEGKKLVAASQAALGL

`CC(C)(C)[Si](F)(c1ccc(C(=O)NC[C@@H](C(=O)N[C@H](CCCCNC(=O)CCCCCCC(=O)NCCCC[C@H](NC(=O)N[C@@H](CCC(=O)O)C(=O)O)C(=O)O)C(=O)O)n2cc(CNC(=O)CCP(=O)(O)CN3CCN(CP(=O)(O)CCC(=O)O)CCN(CP(=O)(O)CCC(=O)O)CC3)nn2)cc1)C(C)(C)C` [68/natGa-19/18F-rhPSMA-5, metal not drawn]: the Internalization in the data set with LNCaP cells is given as 43 ± 3 % of reference.
Consider `CC(C)(C)[Si](F)(c1ccc(C(=O)NC[C@@H](NC(=O)CCC(C(=O)O)N2CCN(CC(=O)O)CCN(CC(=O)O)CCN(CC(=O)O)CC2)C(=O)N[C@H](CCCCNC(=O)CCCCCCC(=O)NCCCC[C@H](NC(=O)N[C@@H](CCC(=O)O)C(=O)O)C(=O)O)C(=O)O)cc1)C(C)(C)C` (some centres unmarked) [68/natGa-19/18F-rhPSMA-6, metal not drawn], for which the Internalization with LNCaP cells is given as 33 ± 2 % of reference.
Take `CC(C)(C)[Si](F)(c1ccc(C(=O)N[C@H](CNC(=O)CCC(C(=O)O)N2CCN(CC(=O)O)CCN(CC(=O)O)CCN(CC(=O)O)CC2)C(=O)N[C@H](CCCCNC(=O)CCC(=O)NCCC[C@@H](NC(=O)CC[C@H](NC(=O)N[C@@H](CCC(=O)O)C(=O)O)C(=O)O)C(=O)O)C(=O)O)cc1)C(C)(C)C` (some centres unmarked) [68/natGa-19/18F-rhPSMA-8, metal not drawn]: in the data set on LNCaP cells, the Internalization was 98 ± 12 % of reference. In the data set with human serum albumin, this compound had an HSA-binding of 97%. Moreover, the tissue uptake at 1 h in data set [1] (setting [2]) was determined as 2.2 ± 0.8 %ID/g; in data set [1] (setting [3]), 1.7 ± 0.1 %ID/g; in data set [1] (setting [4]) it was 0.32 ± 0.07 %ID/g; in data set [1] (setting [5]), 0.93 ± 0.08 %ID/g; in data set [1] (setting [6]), 0.35 ± 0.01 %ID/g; in data set [1] (setting [7]) it was 82.3 ± 5.9 %ID/g. Further, the tissue uptake at 1 h in data set [1] (setting [8]) worked out at 0.79 ± 0.17 %ID/g; in data set [1] (setting [9]), 1.3 ± 0.2 %ID/g; in data set [1] (setting [10]), 0.24 ± 0.02 %ID/g; in data set [1] (setting [11]), 0.48 ± 0.11 %ID/g; in data set [1] (setting [12]), 6.3 ± 1.5 %ID/g; in data set [1] (setting [13]) it was 0.42 ± 0.11 %ID/g. Besides, in data set [1] (setting [14]), the tissue uptake at 1 h was determined as 6.5 ± 0.8 %ID/g.
For `CC(C)(C)[Si](F)(c1ccc(C(=O)NC[C@@H](C(=O)N[C@H](CCCCNC(=O)CCC(=O)NCCC[C@@H](NC(=O)CC[C@H](NC(=O)N[C@@H](CCC(=O)O)C(=O)O)C(=O)O)C(=O)O)C(=O)O)n2cc(CNC(=O)CCP(=O)(O)CN3CCN(CP(=O)(O)CCC(=O)O)CCN(CP(=O)(O)CCC(=O)O)CC3)nn2)cc1)C(C)(C)C` [68/natGa-19/18F-rhPSMA-9, metal not drawn], in the data set on LNCaP cells, the Internalization is recorded as 180 ± 12 % of reference. This compound also gave an HSA-binding with human serum albumin of 95%. Further, the tissue uptake at 1 h in data set [1] (setting [2]) was 2.7 ± 0.2 %ID/g; in data set [1] (setting [3]), 0.46 ± 0.11 %ID/g; in data set [1] (setting [4]), 0.18 ± 0.05 %ID/g; in data set [1] (setting [5]) it was 0.48 ± 0.17 %ID/g; in data set [1] (setting [6]), 0.44 ± 0.34 %ID/g; in data set [1] (setting [7]) it was 54.9 ± 3 %ID/g. Also, the tissue uptake at 1 h amounted to 0.42 ± 0.07 %ID/g in data set [1] (setting [8]); 0.94 ± 0.2 %ID/g in data set [1] (setting [9]); 0.19 ± 0.06 %ID/g in data set [1] (setting [10]); 0.39 ± 0.09 %ID/g in data set [1] (setting [11]); 25.4 ± 5.2 %ID/g in data set [1] (setting [12]); 0.48 ± 0.4 %ID/g in data set [1] (setting [13]). Also, the tissue uptake at 1 h in data set [1] (setting [14]) was determined as 7.2 ± 0.6 %ID/g.
